Patent publication WO2020146541A2 (dated 2020)
Several values for one entry are separate records, joined by “and”; a condition that tells them apart may be missing. Identical values can stand only once.

T1: human MSR1 (human, UniProt P21757 1-451)
T1 sequence (looked up): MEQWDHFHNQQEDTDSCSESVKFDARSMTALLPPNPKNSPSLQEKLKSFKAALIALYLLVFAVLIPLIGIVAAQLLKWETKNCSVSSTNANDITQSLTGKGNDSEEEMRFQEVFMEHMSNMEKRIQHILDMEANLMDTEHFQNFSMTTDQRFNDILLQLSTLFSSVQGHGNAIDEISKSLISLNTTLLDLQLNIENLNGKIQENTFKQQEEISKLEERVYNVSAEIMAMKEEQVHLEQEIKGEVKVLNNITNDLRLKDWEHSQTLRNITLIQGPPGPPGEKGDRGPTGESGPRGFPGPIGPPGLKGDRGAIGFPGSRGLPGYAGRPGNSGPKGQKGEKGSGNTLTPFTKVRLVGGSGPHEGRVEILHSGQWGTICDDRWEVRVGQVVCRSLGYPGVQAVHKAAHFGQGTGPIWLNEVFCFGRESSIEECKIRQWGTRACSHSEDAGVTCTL

B1: anti-MSR1 (H1H21234N-N297Q) ADCs (antibody, V domains shown)
VH: QVQLQESGPGLVKPSETLSLTCTVTGGSISRNYWSWIRQPPGKGLEWIGYIYYSGSIDYNPSLKSRVTISVDTSKNQFSLKLSSMTAADTAVYYCARDRWNWKYGMDVWGQGTTVIVSS
VL: EIVLTQSPGTLSLSPGERATLSCRASQTVRNNYLAWYHQKPGQAPRLLIYGASSRATGIPDRFSGSGSGTDFTLTISRLEPEDFTVYYCHQYGNSPWTFGQGTKMEIKR
modifications: linker-payload on glutamines Q295 and Q297 (N297Q, EU numbering) of the heavy chain constant region; four DAR

Target: T1, human MSR1
Test: cell-based or functional assay

Molecule | EC50, GR luciferase reporter activity in HEK293/GRLuc/MSR1 cells | signal to noise (S/N), GR luciferase reporter in HEK293/GRLuc/MSR1 cells
isotype control ADCs (antibody) | > 35 nM | 1.9 to 154
isotype control ncADCs (antibody) | > 50 nM | 3.8 to 148
B1 | 0.636 nM and 3.96 nM | –
